Data on one molecule can be found in paper PMC9603474, “Genome-Wide Identification of DOF Gene Family and the Mechanism Dissection of SbDof21 Regulating Starch Biosynthesis in Sorghum”.

The data set concerns the target T1, SbDOF21 (Sorghum bicolor cv. BTx623, UniProt C5Y2M8 1-340).
T1 sequence: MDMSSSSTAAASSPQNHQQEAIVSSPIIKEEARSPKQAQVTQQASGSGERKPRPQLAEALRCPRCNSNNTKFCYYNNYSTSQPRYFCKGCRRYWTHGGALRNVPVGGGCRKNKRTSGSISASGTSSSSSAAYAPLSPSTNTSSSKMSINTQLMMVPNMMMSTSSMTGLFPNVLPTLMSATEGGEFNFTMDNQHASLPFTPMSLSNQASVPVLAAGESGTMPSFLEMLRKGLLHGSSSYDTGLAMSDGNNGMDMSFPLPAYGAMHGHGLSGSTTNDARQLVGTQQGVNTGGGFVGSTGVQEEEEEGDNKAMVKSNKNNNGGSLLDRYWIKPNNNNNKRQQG
Put plainly: EMSA; 20-fold unlabeled probe partly reduced the shift; Chemiluminescent EMSA Kit (Beyotime) per instructions; buffer, salt, pH and temperature not stated. To be noted: protein: recombinant; tags: His (pET32a, N-terminal vector fusion); blunt.

B1: 4x P-Box (dsDNA)
DNA 1: TGTAAAGTGTAAAGTGTAAAGTGTAAAG
DNA 2: CTTTACACTTTACACTTTACACTTTACA
Regarding B1, the binding result is “binds”.
